# Measured values from patent US20100003195A1.
# Bridge positions count the residues as written; N and C are the ends.
# Columns and labels:
# [1] = molecular target: KDR on KDR-transfected 293H cells (human), P35968; assay: competitor 125I-VEGF (300 pM), KDR-transfected 293H cells, peptide 30 µM; settings: remark: other sources report otherwise
# [2] = molecular target: KDR on KDR-transfected 293H cells (human), P35968; assay: competitor 125I-VEGF (300 pM), KDR-transfected 293H cells, peptide 0.3 µM; settings: remark: other sources report otherwise
binder,measurement,setting,value
Ac-AGPKWCEEDWYYCMITGTGGGK-NH2 (disulfide 6-13 (inferred); also: fluorescein on C-terminal Lys in FP only) [SEQ ID NO:264],% inhibition of 125I-labeled VEGF binding,[1],48%
same,% inhibition of 125I-labeled VEGF binding,[2],24.4%
